# Assay: yeast display, Sf9 membrane polyspecificity reagent, FACS + sequencing; frameworks hold sequencing errors
# Summary of the method: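 A nanobody's polyreactivity label depends on the gate it was sorted from. Yeast display cells were stained with 10% biotinylated, detergent-solubilized Sf9 membrane reagent for 1 hour at 4 °C, enriched on streptavidin microbeads and sorted by FACS. The low and high (top ~1%) gates were set on anti-HA fluorescence for expression and streptavidin fluorescence for reagent binding.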
row,Sequence,polyreactivity (PSR sort gate)
1,QVQLVESGGGLVQAGGSLRLSCAASGRTFGWYSMGWYRQAPGKERELVAAINNSVDITYYSDSVKGRFTISRDNAKNSVYLQMNSLKPEDTAVYYCNRDARSGFVTIYATDYDYWGQGTQVTVSS,low polyreactivity
2,QVQLVESGGGLVQAGGSLRLSCAASGRTFGYNAMGWYRQAPGKERELVAAISRGDSTNYADSVKGRFTISRDNAKNTVYLQMNSLKPEDTAVYYCAAAFPRYRSRAIRVDYWGQGTQVTVSS,high polyreactivity
3,QVQLVESGGGLVQAGGSLRLSCAASGRTFGYNAMGWYRQAPGKERELVAAITWSGGSTYYADSVKGRFTISRDNAKNTVYLQMNSLKPEDTAVYYCNAYQRLSRAYGYWGQGTQVTVSS,high polyreactivity
4,QVQLVESGGGLVQAGGSLRLSCAASGRTFGYNGKGWYRQAPGKERELVAAINSGGNTNYAESVKGRFTISRDNAKNTVYLQMNSLKPEDTAVYYCAKYGTLYEPVPNEYDNWGQGTQVTVSS,low polyreactivity
5,QVQLVESGGGLVQAGGSLRLSCAASGRTFGYYAMGGYRQAPGKERELVAGIRSSGGSTYYADSVKGRFTISRDHAKNTVYLKMNSLIPEDTAVYYCAARLRSYHYRYGYDYWGQGTQVTVSS,high polyreactivity
6,QVQLVESGGGLVQAGGSLRLSCAASGRTFGYYAMGWYIQAPGKERELVAAISGSGGSTYYADSVKGRFTISRDNAKNTVYLQMNSLKPEDTEVYYCAARYIYYYAFGYNYWGQGTQVTVSS,high polyreactivity
7,QVQLVESGGGLVQAGGSLRLSCAASGRTFGYYAMGWYRQAPGKERELVAAISKSGGRTYYADSVKGRFTISRDNAKNTVYLQMNSLKPEDTAVYYCAADGGAIVPYYENYYWGQGTQVTVSS,high polyreactivity
8,QVQLVESGGGLVQAGGSLRLSCAASGRTFGYYAMGWYRQAPGKERELVASISSSGGNTYYADSVKGRFTISRDNAKNTVYLQMNSLKPEDTAVYYCAATYGWWPRDYYYWGQGTQVTVSS,high polyreactivity
9,QVQLVESGGGLVQAGGSLRLSCAASGRTFGYYAMGWYRQAPGKERELVATITSRGGDTSYADSVKGRFTISRDNAKNTVYLQMKSLKPEDTAVYYCAADRFQGRDDYWGQGTQVTVSS,high polyreactivity
10,QVQLVESGGGLVQAGGSLRLSCAASGRTFGYYAMGWYRQAPGKERELVATITWSGGSTYYADSVKGRFTISRDNAKNTVYLQMNSLKPEDTAVYYCATGQYGYWYGTENDYWGQGTQVTVSS,low polyreactivity
11,QVQLVESGGGLVQAGGSLRLSCAASGRTFGYYAMGWYRQAPGNERELVASISQSGGRTYYADSVKGRFTISRDNAKNTVYLQMNSLKPVDTAVYLCNAVYYRRTGYEYWGQGSQVTVSS,high polyreactivity
12,QVQLVESGGGLVQAGGSLRLSCAASGRTFGYYARGWYRQAPGKERELVADISSGGSTSYADSVKGRFTISRDNAKNTVYLQMNSLKPEDTAVYYCAADSHQNFSGWLRWPRMDYWGQGSQVTVSS,low polyreactivity
13,QVQLVESGGGLVQAGGSLRLSCAASGRTFGYYGLGWYRQAPGKERELVASINFSSGSTFYADSVKGRFTISRDNAKNTVYLQMNSLKPEDTAVYYCAARTDVGWYSRYGYWGQGTQVTVSS,low polyreactivity
14,QVQLVESGGGLVQAGGSLRLSCAASGRTFHFDAMGWYRQAPGKERELVASITWSAVRTYYADSVKGRFTISRDNAKYTVYLQMNSLKQEDTAVYYCAIDWDYRLMDYWGQGTQVTVSS,low polyreactivity
15,QVQLVESGGGLVQAGGSLRLSCAASGRTFHGYALGWYRQAPGKERELVARINWSDGRTYYADSVKGRFTISRDNAKNTVYLQMNSLKPEDTAVYYCAADKTVSYAPAWYYYWGQGTQVTVSS,low polyreactivity
16,QVQLVESGGGLVQAGGSLRLSCAASGRTFHKYAMGWYRQAPGKEWELVAAISNGGRTYYADSVKGRFTISRDNAKNTVYLQMNSLKPEDTAVYYCNADRTWKGRQYDYWGQGTQVTVSS,high polyreactivity
17,QVQLVESGGGLVQAGGSLRLSCAASGRTFHRYAMGWYRQAPGKERELVAAITSSGGSTNYADSVKGRFTISRDYAKNTVYLQMNSLKPEDTAVYYCATDRYRYTSHPWSRGFDYWGHGTQVTVSS,low polyreactivity
18,QVQLVESGGGLVQAGGSLRLSCAASGRTFHRYTMGWYRQAPGKERELVASISRSGGSTYYADSVKGRFTISRDNAKNTVYLQMNSLKPEDTAVYYCAARVSRRGTWYDYWGQGTQVTVSS,high polyreactivity
19,QVQLVESGGGLVQAGGSLRLSCAASGRTFHTYAIGWYRQAPGKERELVAAITRRGGSTYYADSVKGRFTISRDNAKNTVYLQMNSLKPEDTAVYYSAAPWYGYWGQGTQVTVSS,high polyreactivity
20,QVQLVESGGGLVQAGGSLRLSCAASGRTFHVYAMGWYRQAPGKERELVAAITWSGDSTYYADSVKGRFTISRDNAKNTVYLQMNSLNTEDTAVYYCAASKFWKYDYWGQGTQVTVSS,low polyreactivity
21,QVQLVESGGGLVQAGGSLRLSCAASGRTFHYNAMGWYRQAPGKERELVAAISRDGGSTDYADSVKGRFTISRDNAKNTVYLQMNSLKPEDTAVYYCAAPIGKQEFSRDYDYWGQGTQVTVSS,low polyreactivity
22,QVQLVESGGGLVQAGGSLRLSCAASGRTFIANAMGWYRQAPGKERELVAVITLNGGSTYYADSVKGRFTISRDNAKNTVYLQMNSLKPEDSAVYYCDAGRYYNLRATHGYWRQGTQVTVSS,low polyreactivity

row,Sequence,polyreactivity (PSR sort gate)
1,QVQLVESGGGLVQAGGSLRLSCAASGRTFIGYAMAWYRQAPGKEWELVAAISARGGRTYYADSVKGRFTISRDNAKNTVYLQMNSLKPEETAVYYCAAVRVKHSGYDYWGQGTQVTVSS,high polyreactivity
2,QVQLVESGGGLVQAGGSLRLSCAASGRTFIKNAMGWYRQAPGKERELVATISKRGGRTYYADSVKGRFTISRDNAKNTVYLQMNSLKPEDTAVYYCAARYRKSGLDKYWGQGTQVTVSS,high polyreactivity
3,QVQLVESGGGLVQAGGSLRLSCAASGRTFIKYAMGWYRPAPGKERALVAAISRNGGSTNYADSVKGRFTISRDNAKNTVDLQMNSLKPEDTAVYYCAAVGTVSSTVGYNYWGQGTQVTVSS,high polyreactivity
4,QVQLVESGGGLVQAGGSLRLSCAASGRTFINYAKGWYRQAPGKERELVAAITTGGGGTYYADSVKGRFTISRDNAKNTVYLQMNSLKPEDTAVYYCAAEGTGYWGIVGYYYWGQGTQVTVSS,low polyreactivity
5,QVQLVESGGGLVQAGGSLRLSCAASGRTFIPYAMGWYRQAPGKERELVAAIRTTGGSTNYADSVKGRFTISRDNAKNTVYLQMNSLKPEDTAVYYCAATSRQRPYDYWGQGTQVTVSS,high polyreactivity
6,QVQLVESGGGLVQAGGSLRLSCAASGRTFIRNVMGWYRQAPGKERELVAGITGGGNTYYADSVKGRFTISRDNAKNTVYLQMNSLKPEDTAVYECAVRYPSYGLSYVRYGYWGQVTQVTVSS,high polyreactivity
7,QVQLVESGGGLVQAGGSLRLSCAASGRTFISNAMGWYRQAPGKERELVAAITSTGGRTYYADSVKGRFTISRDNAKNTVYLQMNSLKPEDTAVYYCNTGKRRFYSMDYWGQGTQVTVSS,high polyreactivity
8,QVQLVESGGGLVQAGGSLRLSCAASGRTFISNAMGWYRQAPGKERELVATISRRGGITYYADSVKGRFTISRDNSKNTVYLQMNSLKPEDTAVFYCNARNYPQGIYYWGQGTQVTLSS,high polyreactivity
9,QVQLVESGGGLVQAGGSLRLSCAASGRTFISYAMGWYRQAPGKERELVAAIDFSDGSTYYADSVKGRFTISRDNAKNTVYLQMNSLKPEDTAVYYCAADDPGLGYWSLTWYDYWGQGTQVTVSS,high polyreactivity
10,QVQLVESGGGLVQAGGSLRLSCAASGRTFIVNTMRWYRQAPGKDRELVAAITARGGRTYYADSEKGRFTISRDNAKNTVYLQLNSLKPEDTAVYYCNARTPPREAERYYWGQGTQVTVSS,low polyreactivity
11,QVQLVESGGGLVQAGGSLRLSCAASGRTFIWNAMGWYRQAPGKERELVADISIRGGSTNYADSVKGRFTISRDNAKNTVYLQMNSLKPEDTAVYYCAADYYDSGNDYWGQGTQVTVSS,low polyreactivity
12,QVQLVESGGGLVQAGGSLRLSCAASGRTFIYNTMGWYRQAPGKERELFAAISSGGSTNYADSVKGRFTISRDNAKNTVYLQMNSLKPEDTAVYYCATQGLSAPFDGFVNSRFDHRGQGTQVTVSS,low polyreactivity
13,QVQLVESGGGLVQAGGSLRLSCAASGRTFIYNVMGWYRQAPGKERELVAAISQRGGSTYYADSVKGRFTISRDNAKNTVYLQMNSLKPEDTAVYYCAAESYYKKWSDYWGQGTQVTVSS,high polyreactivity
14,QVQLVESGGGLVQAGGSLRLSCAASGRTFIYYAMGWYRQAPGKERELVATIRGSSTRTYYADSVKGRFTISRDNAKNTVYLQMNSLKPEDTAVYYCAARGTSRKYYYWGQGTQVTVSS,high polyreactivity
15,QVQLVESGGGLVQAGGSLRLSCAASGRTFIYYDKGWYRQAPGKERDLVAAIRQRGDNTYYADSVKGSFTISRDNAKNTVYLKMKSLKPDDTAVYFCAAVNYLSYRYGYSWSYPGGGYWGQGTQVTVSS,high polyreactivity
16,QVQLVESGGGLVQAGGSLRLSCAASGRTFKANAMGWYRQAPGKERELVAAISYSGGNTYYADSVKGRFTISRDNAKNTVYLQMNSLKPEDTAVYYCAARRGYGRENQFYSWGQGTQVTVSS,high polyreactivity
17,QVQLVESGGGLVQAGGSLRLSCAASGRTFKAYAMGWYRQAAGKEREFVPAITKRGGSTYYADSVKGRFTISRDNAKNTVYLQMNSLKPEDTAVYYCAVGLGRYTHTSVPIPSYDYWGQGTQVTVSS,high polyreactivity
18,QVQLVESGGGLVQAGGSLRLSCAASGRTFKDYAKGWYRHAPGKERELVARINGSGGSTYYADSVKGRFTISRDTAKNSVYLQMNSLKPEDTAVYYCGKDARRRTSILSGGRHYDYWGQGTQVTVSS,low polyreactivity
19,QVQLVESGGGLVQAGGSLRLSCAASGRTFKDYAMGWDIQEPGKERELVAAISWSGGDTYYADSVKGRFTISRDNAKNTVYLQMNSLKPEDTAVYYCNADPSGVFFYSLEFDYWGQGTQVTVSS,low polyreactivity
20,QVQLVESGGGLVQAGGSLRLSCAASGRTFKFYAMGWYRQAPGKERELVARITSNSGSTYYADSVKGRFTISRDNAKHTVYLQLNSLKPEETAVYYCNARYGYTYRTFRYDYWGQGSQVTVSS,high polyreactivity
21,QVQLVESGGGLVQAGGSLRLSCAASGRTFKFYAMGWYRQAPGKERELVARITSNSGSTYYADTVKVRYTISRDNAKNTVYLQMNSLKPEDTAVYYCAARGRYRQFNYWGQGTQVTVSS,high polyreactivity

# Reference: the nanobody polyreactivity screen of Harvey et al. (2022)
